Laboratory results reported in patent US20200148787A1 (KYMAB, published 2020).

Tests used:
[1] = target: Human Factor X (FX) (human, UniProt P00742 41-179; P00742 183-488, limits assumed); test: SPR Biacore 8K, IgG captured on anti-human IgG Fc, FX analyte, 25 C, 1:1 fit
Protocol: (§1) Amine coupling kit (BioRad) was used to activate the surface of the chip. […] The immobilisation run was performed at 25° C. using HBS-EP (10 mM HEPES pH 7.4, 150 mM NaCl, 3 mM EDTA, 0.05% Polysorbate 20 pH 7.6) as immobilisation running buffer.
The run was performed at 25° C. using neutral pH (pH 7.4) HBS-P 1× (0.01 M HEPES pH 7.4, 0.15 M NaCl, 0.05% Polysorbate 20 pH 7.6)+CaCl₂) 2.5 mM as running buffer.

[2] = target: T1, Human factor IX (FIX) (human, UniProt P00740 47-461, 12 glutamic acid residues in the GLA domain post-translationally gamma-carboxylated (general description)); test: SPR Biacore 8K, IgG captured on anti-human IgG Fc, FIX analyte, 25 C, 1:1 fit
T1 construct: mature; Bought reagent, used as SPR analyte
Protocol: as §1, with “An anti-human IgG Fc antibody was immobilised on CM4 chip (GE Healthcare catalog number BR100534) according to manufacturer's instructions. Amine” for “Amine”
Purified monospecific antibodies (referred to as ligand) from Example 13 were captured on the anti-human IgG Fc CM4 surface at approximately 2 μg/ml. The ligands were injected for 60 sec at 10 μl/min in all the active channels of all 8 flow channels. The run was performed at 25° C. using neutral pH (pH 7.4) HBS-P 1× (0.01 M HEPES pH 7.4, 0.15 M NaCl, 0.05% Polysorbate 20 pH 7.6)+CaCl₂) 2.5 mM as running buffer. Human factor IX (FIX) (Enzyme Research Laboratories cat n. HFIX 47064) was reconstituted at 1 mg/ml (MW ˜55 KDa) in the running buffer and used as analyte. […] Three injections of 10 mM glycine pH 1.5 for 60 sec at 10 μl/min were used for the regeneration phase.
The association and dissociation data of the interaction were fitted using biomolecular reaction model (1:1 Langmuir model). The values for association rate constant (kₒₙ), dissociation rate constant (koff) and dissociation constant (KD) were calculated from the binding data by BIAevaluation software.

Human Factor X (FX), sequence (P00742 41-179 limits assumed, form in doubt, chain 1 of 2): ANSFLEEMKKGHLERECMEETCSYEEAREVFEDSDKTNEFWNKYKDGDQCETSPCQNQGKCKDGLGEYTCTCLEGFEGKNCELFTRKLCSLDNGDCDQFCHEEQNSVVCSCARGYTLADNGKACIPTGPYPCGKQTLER
Human Factor X (FX), sequence (P00742 183-488 limits assumed, form in doubt, chain 2 of 2): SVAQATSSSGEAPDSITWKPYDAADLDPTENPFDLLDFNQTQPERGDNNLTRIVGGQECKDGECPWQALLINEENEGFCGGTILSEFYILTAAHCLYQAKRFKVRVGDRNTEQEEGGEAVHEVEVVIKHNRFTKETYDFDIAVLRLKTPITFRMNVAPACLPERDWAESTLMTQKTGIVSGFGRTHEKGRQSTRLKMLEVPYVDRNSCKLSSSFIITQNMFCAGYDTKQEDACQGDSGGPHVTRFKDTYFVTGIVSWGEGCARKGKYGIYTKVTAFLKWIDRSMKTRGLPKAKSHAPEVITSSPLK

Binder | Kd [1] [nM] | Kd [2] [nM] | koff [2] [s⁻¹] | kon [2] [M⁻¹ s⁻¹]
T25H_IgG4PE + T25L_IgK (antibody, V domains shown, Monospecific IgG4PE, kappa; Kappa junction as noted for T14) VH: QVQLQESGPGLVKPSETLSLTCTVSGGSISSGIYYWSWIRQHPGKGLEWIGYINNSGNTYYNPSLKGRVNISVDTSKKQFSLKLSSVTDADTAVYYCARGGSGDYWGQGTLVTVSS VL: EIVLTQSPATLSLSPGERATLSCRTSQSINNYLAWFQQKPGQAPRLLIYDASNRAPGIPARFSGSGSGTDFTLTISSLEPEDFVVYFCQQRNNWPPTFGQGTKVEIKR | 3.57 | – | – | –
N225H_IgG4PE + N128L_IgL (antibody, V domains shown, Monospecific IgG4PE with lambda light chain) VH: EVQLVESGGGFVQPGGSLRLSCAVSGFTFNSYWMSWVRQAPGKGLEWVANINQDGSEKFYVASVKGRFTISRDNAKKSVYLQMNSLRAEDTAVYYCAREGYSSSSYYGMDVWGQGTTVTVSS VL: SYVLTQPPSVSVAPGETARITCGGDNIGRKSVYWYQQKSGQAPVLVIYYDSDRPSGIPERFSGSNSGNTATLTISRVEAGDEADYYCQVWDGSSDHWVFGGGTKLTVLG | – | 428 | 0.031 | 72300
